Assay: soluble on expression in E. coli; label from the status in PepcDB or PDB records

Sequence	soluble on expression in E. coli
MTDEKKDDRPVYQAACHCGTVRFELRLTDGLRTARRCNCSLCRMRGAVAVSANLGDITVTQGEEALTLYQFHTREAKHYFCSRCGIYTFHQRRSAPDQYGVNVACIEGMSPFDFADVPVSEGRVHPKDRVDGGVGVAGWLRYEGNPEWGQGLEHHHHHH	soluble
MARLTVHTLETAPEAAKPRVEAVPKNNGFIPNLIGVLANAPEALAFYQEVGKLNAANSLTAGEVEVIRIIAVRTNQCSFCVAGHTKLATLKKLLSEQSLNAARALAAGKSDDAKLGALAAFTQAVMAKKGAVSDDELNAFLEAGYNRQQAVEVVMGVALATLCNYANNLAQTEINPKLQAYA	not soluble
MGSDKIHHHHHHMIKVALLHFGFEDYTIELANSLSKYVDLTLINPKKLSDVCGDAFDPSIRVVSFKKPRIRDPRNLLSMNAMMRIIKDIQPDVLHVQETNDPWYDWTLLLNKMPPLVTTIHDVFRHPGDKVAVFGSEYTRRIAFYRSQQLIVHTHQLKKILIEQFNLPEGRVNVIPHGELGSLYQHRGDRSNQPRDPNTLLFFGRIWPYKGLKYLLEAMPLIAECVPEVKLIIAGRGENIKEYFPNGYDENRYEIINRLIPLEEVSNLFQRSTVTVLPYIEASQSGVAALSYGMGTLVVASDVGGLSEIVQHKKDGLLVPPRDVRALADAIICLLSDRDLQQKMQTAALARCQQDLNWSNIAAQTVEVYQKTMKPIHQ	not soluble
GKDFSYWVKMTTGYSDNKIKEAGFQATPGFDDIVRGERSDRGVWGYECIGMFRTYQDIEEYFAVNKITSYLGNTKDNIHPGMLIYRDVRGQRNADGTYGEADGVIDQNDYVKISN	not soluble
VAARTGNDPATDVRSTILTAAETCFERFGITKTTMEDVARAADMSRATVYRYFSDRESLIIESVARRARKNMKPARAFIAKWPTIEERLVEGICNNVESGLRDPMVHLLVSPSEMTLANSLLTTSGKAVELTSELWEPILRDAQEAGDIRADVDLALLCEWISELEIMCISQLNGGTGSLERFREKLRAFLVPSLLPAGN	not soluble
MLLKTKHFGEINIDESKIIEFKDGIPGFENLKRYVVLYDGDKNSPFRWLQNVDDGELAFAVVNPFMVVKDYDFEIPDEAVESLGIESILDVMVLSIVVVPEDISKMTMNLKAPVIINTKNNKGMQVVLDTDRYSVRHYIIEELRRQEVNVGAGSDEKEK	soluble
MGRLDGKVIILTAAAQGIGQAAALAFAREGAKVIATDINESKLQELEKYPGIQTRVLDVTKKKQIDQFASEVERLDVLFNVAGFVHHGTVLDCEEKDWDFSMNLNVRSMYLMIKAFLPKMLAQKSGNIINMSSVASSVKGVVNRCVYSTTKAAVIGLTKSVAADFIQQGIRCNCVCPGTVDTPSLQERIQARGNPEEARNDFLKRQKTGRFATAEEIAMLCVYLASDESAYVTGNPVIIDGGWSL	not soluble
MNNNDVLRKLRYTFNFNDKQMVAIFASAGEEVSREQVSQWLKKDTDSDFVALFDTKLAVFLNGFINEKRG	not soluble
MIVILDNGGQYVHRIHRSLKYIGVSSKIVPNTTPLEEIESNKEVKGIILSGGPDIEKAKNCIDIALNAKLPILGICLGHQLIALAYGGEVGRAEAEEYALTKVYVDKENDLFKNVPREFNAWASHKDEVKKVPEGFEILAHSDICQVEAMKHKTKPIYGVQFHPEVAHTEYGNEILKNFCKVCGYKFE	soluble
MAHHHHHHMRRQTRLFSRLAVEIPNSHWLPRRLLLVRHGESEANVDRSQYSRIPDWKIPLTERGRAQALDCGRRLRNIIKNEKLYIYYSPYVRTQQTLAEVRKSLEESQVQGEREDERLREQEIGNFQPLDKMDRTWDERSNFGRSYYRFPDGESSVDVGDRVSTFFDSLFRERLELYSLSAGDPEDEDGPLNVPGEDDQNVLIISHGLLIRLFIARWFRVPLEAFETMRNPPNCSIVVLERQESARMVMTDISKKLFGSDPLLEMMKFDGKDSTKRYRHMFFSDHSGSFTPAEGV	not soluble
MEPLLSLKSVSKSYDDLNILDDIDIDIESGYFYTLLGPSGCGKTTILKLIAGFEYPDSGEVIYQNKPIGNLPPNKRKVNTVFQDYALFPHLNVYDNIAFGLKLKKLSKTEIDQKVTEALKLVKLSGYEKRNINEMSGGQKQRVAIARAIVNEPEILLLDESLSALDLKLRTEMQYELRELQSRLGITFIFVTHDQEEALALSDFLFVLKDGKIQQFGTPTDIYDEPVNRFVADFIGESNIVEGRMVRDYVVNIYGQDFECVDMGIPENKKVEVVIRPEDISLIKAEEGLFKATVDSMLFRGVHYEICCIDNKGYEWVIQTTKKAEVGSEVGLYFDPEAIHIMVPGETEEEFDKRIESYEEVDNA	not soluble
MSRIGRIPVAIPKGVDVKLGDNNTLTVKGQKGTLTKQFHKDMIIKVEGDKIIVQRPSDEKKHKALHGLTRTLINNMVIGVTQGYEKALEINGVGYRAQKQGKKLILTLGYSHPVEMEEPQGITVEVPAPNKIVVKGADKQAVGEFAAKIRSKREPEVYKGKGIKYEDEVIRRKEGKAGGKGKK	not soluble
TLNIVITGAKGFVGKNLKADLTSTTDHHIFEVHRQTKEEELESALLKADFVVHLAGVNRPEHDKEFSLGNVSYLDHVLDILTRNTKKPAILLSSSIQATQDNPYGESKLQGEQLLREYAEEYGNTVYIYRWPNLFGKWCKPNYNSVIATFCYKIARNEEIQVNDRNVELTLNYVDDIVAEIKRAIEGTPTIENGVPTVPNVFKVTLGEIVDLLYKFKQSRLDRTLPKLDNLFEKDLYSTYLSYLPSTDFSYPLLMNVDDRGSFTEFIKTPDRGQVSVNISKPGITKGNHWHHTKNEKFLVVSGKGVIRFRHVNDDEIIEYYVSGDKLEVVDIPVGYTHNIENLGDTDMVTIMWVNEMFDPNQPDTYFLEV	soluble
MSLRTTDDLPNALPPALESMTLLVAAVIVHDQATNRVVLLQRSENAKFAQGMWDLPVGKSEPGEPITETAVRELHEETGLTVKPEALMVAHIIHGSWGVEAPNGFLTVVFATHEWTGEPENREPRKHSQVRWVDADAIPEECVDTTASALHHYLSGGAQVSLDGWLPKEGHHHHHH	soluble
EVVVIGYGTAKRKDITGSVATVNAEALTVVPVASATEALTGKMAGVQITTTEGSPDAEMKIRVRGGGSITGDNTPLFIVDGFPVESISDIPASDIEDMTVLKDASSTAIYGSRGANGVILVTTKSGK	not soluble
QTINKIDLQALEESQIDWAKYQPHQAVVLKARKQLRDHQQTALNATAAGLNDAERGKLIMACGTGKTFTSLKIAERLAGKGKRVLFLVPSLSLLSQTLTEWTQESETPLHSFAVCSDSDVGKKRKADEDTVQVFTHELRYPATTKADRLAAEMLKRHDAEHMSVVFSTYHSIDVISRAQHEYDLAAFDLVICDEAHRTTGATFDDDDESTFVRIHDVDYIRAIKRLYMTA	not soluble
LLERLPVPVLAVQHDGVVVYSNRAFERMLDYPPNEVGNHLIGDLMQTASPGPSAVAELRESAGKLVALTHRDGSTVRAFVSESVLERHDDPVTLVCFHDVT	not soluble
MNNDHLDPINSLNVPELADTTFAMDFLIRAKEGVRNTAVALTETASPDVRALLRKQLMQGIAMHQEITELMISKKWFHPYELSEQYKLDQLSAKNTIMVGNMNLFPDETNRKGMFDRTPDEHMAGDPLEHHHHHH	not soluble
MEEPKLILTVKNNKNNKCIIEILNRLYLKDLNSKAEEIIKNVILVYTSLTPIMAYGLLISAPPSCLAKIYPVDLVIHSVKEREIIDKITEFLKKNIQFKTFYVDCYDRGIKINCREVEIGIGIGLRGFASVDYKNPEKVIVVNVIKDSTYMSVIKKGQEKVSVISLR	soluble
MSLNRRELLERISEYQFACIELNLYLDNNPRDKKALDSYNRYCDKFTQAVCDYESKYGALTNFGYESSEYPWSWISEPWPWDKSFYK	soluble
MGSDKIHHHHHHMIVALIIHRPLTKRQKMVAYDVEQLEGKVRGALLQGTNSGKTGVIVLGGSSGRVDTTRAGLFANTGARALALQWFGGANQPPGICEIPLETFVDATDLLISRGCDRTVFVGTSKGAEAALLASTIDHRINVVIAISPSSVVLGNIGAGVDGISWPERSSWSFKRSPLDFVPADINWQKDYRDGLVSYRSFFEKCLSNDVQLNERARIPVESSPADLILVAGGDDALWPSGYFARQILQSRQAHGRQATLIFDKDAGHRILLPGETTQRSKLHAHGGSDEADAKLGQNAWRAIRELL	not soluble
MIIYRDLISHDVMFSDIYKIREIADGLCLEVEGKMVSRTEGNIDDSLIGGNASAEGPEGEGTESTVITGVDIVMNHHLQETSFTKEAYKKYIKDYMKSIKGKLEEQRPERVKPFMTGAAEQIKHILANFKNYQFFIGENMNPDGMVALLDYREDGVTPYMIFFKDGLEMEKCLEHHHHHH	soluble
MECFRSRIITIYLKRLKYSPLLWRNAKRGTRSSYMWLYVSICCGDFQFWKLSGTPSSPTCKTHSCGFIFWTNTHLLGDQLRYTIMDTIGMYLIIKQRLRNIHKNDPRLFQYVFENGHPLPYNR	not soluble
MAMITGGELVVRTLIKAGVEHLFGLHGSHIDTIFQACLDHDVPIIDTRHEAAAGHAAEGYARAGAKLGVALVTAGGGFTNAVTPIANAWLDRTPVLFLTGSGALRDDETNTLQAGIDQVAMAAPITKWAHRVMATEHIPRLVMQAIRAALSAPRGPVLLDLPWDILMNQIDEDSVIIPDLVLSAHGARPDPADLDQALALLRKAERPVIVLGSEASRTARKTALSAFVAATGVPVFADYEGLSMLSGLPDAMRGGLVQNLYSFAKADAAPDLVLMLGARFGLNTGHGSGQLIPHSAQVIQVDPDACELGRLQGIALGIVADVGGTIEALAQATAQDAAWPDRGDWCAKVTDLAQERYASIAAKSSSEHALHPFHASQVIAKHVDAGVTVVADGALTYLWLSEVMSRVKPGGFLCHGYLGSMGVGFGTALGAQVADLEAGRRTILVTGDGSVGYSIGEFDTLVRKQLPLIVIIMNNQSWGATLHFQQLAVGPNRVTGTRLENGSYHGVAAAFGADGYHVDSVESFSAALAQALAHNRPACINVAVALDPIPPEELILIGMDPFGSHHHHHH	soluble
QMNTVFIKNEGVTEGEIATIGEHTAEISGVSTGTDWTRDYSQSGALRSLLGTVSTEKQGLPAEEVDEYLKKGYARNDRVGTSYLEKQYEDVLQGKKAKSEVVLDNNGKIVSQTPISKGEKGSNLKLTID	not soluble
VLGAIENVEIADIKQAFTARIDTGATTSSLNAVDLQEFERNGSQWVRFHLVNQDVKADDGKLEWITAPVIRNVKIRQATADDAERRPVVELWIKLGAIHEKVQFTLADRSHMTHSVLLGREFIQDIAVVDVSKEFVQSKK	soluble
MGSDKIHHHHHHLYINKRPIFLVHGLWNNPKLFEKLIKKINEDDYELYRPHLPHKYGKTSLKRLALDLDSKIEELVGPEIEIDIVGFSMGGLISRFWLQNHDGFLRTKRFFSIGTPHFGTYTAQMIPSFLMPGIAEMKRGSRLLSLLNNDLTSLEKVECTSFFTKWDLMSFPGWQAKLSIGESYHLPVLTHKELITNSSSLDILVKKIFKNS	not soluble
MGSDKIHHHHHHADDDKPIQVSQMPQKAQQFIKQHFAGSNIAMAKVESDFLQKSYDVIFTDGNKVEFDKKGNWTEVNCKFSVVPQGIIPSPIQKYTATNYPDAKVLKIERDKTDYEVKLSNGWELKFDSKFNLIDIDN	not soluble
MEMMPNIEELRKMRKNLGISQKDLAKVTGVSQSYIARLEKGTINPTYSKIKAIYEYLTKSSEKASTMVLTCDRIMTRNVVVCRSDESILNALNIMRDKGFSQLPVVNEENKVIGTIAENNINDMLLKGMSIDSLRGLTVRRVMSDVLPQVDRNTPVNIIYQLLKYSNAVLVIEAGNLVGIITKADILKTVAGMI	not soluble
